Data on two substances can be found in paper PMC2581425.

Values joined by “and” are separate entries in the source; they are usually repeats but may differ in a detail not shown here. Identical values can stand only once.

Test [1] deals with CagY-C2 (recombinant N-terminal His-tagged CagY repeat 2 motif A fragment) (Helicobacter pylori strain Q121B). Kind of test: non-reducing SDS-PAGE; affinity-purified His-tagged protein on 15% SDS-PAGE without reducing agent, beside a reducing gel; multimers held by disulphide linkages.
The target is the same in test [2]. Kind of test: SEC; 26/60 Superdex 200, 20 mM Tris (pH 8.0), 200 mM NaCl, 2 mL/min; calibrated with known standards; peaks analysed by SDS-PAGE (not shown).
Test [3] has as its target CagY-C2_(C3S/C28S/C41S) (Helicobacter pylori strain Q121B). Description: non-reducing SDS-PAGE; affinity-purified His-tagged protein on 15% SDS-PAGE without reducing agent, beside a reducing gel; multimers held by disulphide linkages.

Turning to “CagY-C2 (recombinant N-terminal His-tagged CagY repeat 2 motif A fragment) (domain or fragment)”, the stoichiometry N is 2 and 3 and 4 in test [1]; 2 in test [2].

As for “CagY-C2_(C3S/C28S/C41S) (domain or fragment)”, the stoichiometry N in test [3] came to 2.
